Reference: paper PMC10324447

Experiments:
[1] = biological target: VRC01 IgG1 bound to its antigen (not stated | HIV-1, strain BaL); test: ITC
VRC01 IgG1 = test: ITC

- Kd [1]: 547 nM
- Kd (VRC01 IgG1): 150 nM
Substance: human FcγRIIIa-V158, soluble extracellular domain (receptor)
